Data reported in PMC3311620.

Target: CXCR7-RLuc (human) (UniProt P25106)
Sequence of UniProt P25106 (P25106 whole entry): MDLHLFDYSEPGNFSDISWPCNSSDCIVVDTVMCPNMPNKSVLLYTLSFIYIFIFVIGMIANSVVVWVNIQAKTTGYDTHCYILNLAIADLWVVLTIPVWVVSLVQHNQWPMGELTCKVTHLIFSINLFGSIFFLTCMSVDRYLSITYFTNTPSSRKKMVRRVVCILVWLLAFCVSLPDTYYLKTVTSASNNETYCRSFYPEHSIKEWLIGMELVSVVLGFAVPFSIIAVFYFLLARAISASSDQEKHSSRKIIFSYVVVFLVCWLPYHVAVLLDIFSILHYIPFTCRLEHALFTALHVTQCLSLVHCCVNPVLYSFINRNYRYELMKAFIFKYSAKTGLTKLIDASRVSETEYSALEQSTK

B1: CXCL11 (I-TAC) (ligand)
chain: FPMFKRGRCLCIGPGVKAVKVADIEKASIMYPSNNCDKIEVIITLKENKGQRCLNPKSKQARLIIKKVERKNF
B1 gave a pEC50 of CXCL11 for β-arrestin1-YFP recruitment to CXCR7-RLuc (BRET, HEK293T) of 8.7 and a pEC50 of CXCL11 for β-arrestin2-YFP recruitment to CXCR7-RLuc (BRET, HEK293T) of 8.5.
